Reference: publication PMC5772059

Molecular target: N2Bus phosphorylated by PKA catalytic subunit or cGMP-activated PKG
Experiment: pull-down; GST pull-down: purified protein incubated with a GST-fusion protein immobilised on glutathione sepharose beads, 4 °C, 1.5 h; washes in high and low salt buffer; SDS-PAGE and western blot

B1: recombinant human full-length PP5 (enzyme)
chain: MAMAEGERTECAEPPRDEPPADGALKRAEELKTQANDYFKAKDYENAIKFYSQAIELNPSNAIYYGNRSLAYLRTECYGYALGDATRAIELDKKYIKGYYRRAASNMALGKFRAALRDYETVVKVKPHDKDAKMKYQECNKIVKQKAFERAIAGDEHKRSVVDSLDIESMTIEDEYSGPKLEDGKVTISFMKELMQWYKDQKKLHRKCAYQILVQVKEVLSKLSTLVETTLKETEKITVCGDTHGQFYDLLNIFELNGLPSETNPYIFNGDFVDRGSFSVEVILTLFGFKLLYPDHFHLLRGNHETDNMNQIYGFEGEVKAKYTAQMYELFSEVFEWLPLAQCINGKVLIMHGGLFSEDGVTLDDIRKIERNRQPPDSGPMCDLLWSDPQPQNGRSISKRGVSCQFGPDVTKAFLEENNLDYIIRSHEVKAEGYEVAHGGRCVTVFSAPNYCDQMGNKASYIHLQGSDLRPQFHQFTAVPHPNVKPMAYANTLLQLGMM
fold binding against unphosphorylated N2Bus: 2 to 3 times
